Experimental data from the supplement of paper PMC12338614.

B1: library; numbered along this chain (parent)
chain: MEVVDPQQLGMFTEGELMSVGMDTFIHRIDSTEVIYQPRRKRAKLIGKYLMGDLLGEGSYGKVKEVLDSETLCRRAVKILKKKKLRRIPNGEANVKKEIQLLRRLRHKNVIQLVDVLYNEEKQKMYMVMEYCVCGMQEMLDSVPEKRFPVCQAHGYFCQLIDGLEYLHSQGIVHKDIKPGNLLLTTGGTLKISDLGVAEALHPFAADDTCRTSQGSPAFQPPEIANGLDTFSGFKVDIWSAGVTLYNITTGLYPFEGDNIYKLFENIGKGSYAIPGDCGPPLSDLLKGMLEYEPAKRFSIRQIRQHSWFRKKHPPAEAPVPIPPSPDTKDRWRSMTVVPYLEDLHGADEDEDLFDIEDDIIYTQDFTVPGQVPEEEASHNGQRRGLPKAVCMNGTEAAQLSTKSRAEGRAPNPARKACSASSKIRRLSACKQQ

Variants of: B1
Assay: STK11 functional score (HeLa growth suppression), rescaled enrichment; synonymous median = 1, nonsense median = 0 (normalised score)
Settings: with HeLa; variant type: missense
In short: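 Functional scores are post/pre-selection log ratios corrected to wild type, rescaled to synonymous and nonsense medians, merged over codons and replicate transfections, and given bootstrapped error. They come from POPCode libraries of codon-optimised STK11 integrated by Bxb1 at an AAVS1 landing pad in HeLa, three regions each transfected three times, with BFP-negative, mCherry-positive integrants sorted by FACS and tiled gDNA amplicons sequenced on NextSeq.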

STK11 functional score: each site, then its substitutions
D277: W 0.81 | G 1.16 | H 1.36 | R 1.34 | V 1.23 | A 0.843 | M 0.115 | F 1.35 | L 0.92 | T 1.59 | S 0.886 | N 1.15 | I 1.45 | C 1.32
Y272: L 0.641 | F 1.27 | H 1.08 | T 1.44 | C 1.13 | I 1.08 | A 1.33 | N 1.71 | V 0.735 | S 0.837 | W 1.01 | R 0.701 | P 1.38 | M 1.63 | E 1.28 | G 1.2
G268: N 1.03 | S 1.55 | V 0.743 | C 1.25 | Q 1.26 | R 1.44 | P 1.07 | L 1.56 | A 0.916 | H 1.15 | F 1.16 | T 1.52 | D 1.53 | Y 1.32 | I 1.65 | M 0.465
I260: W 1.21 | S 1.44 | V 1.07 | T 1.33
P275: D 1.63 | M 0.445 | R 1.12 | F 0.767 | G 1.14 | I 1.17 | N 1.41 | A 0.693 | S 0.957 | L 0.807 | V 0.683 | W 0.995 | E 0.52 | Y 0.943 | T 0.875 | K 1.45
I267: R 1.01 | G 0.602 | S 1.16 | T 1.11 | W 0.777 | V 1.09 | N 0.995 | L 0.603 | D 0.629 | P 0.26 | A 1 | F 0.659 | H 1.45 | M 0.815
L282: H 0.737 | I 0.764 | G 0.43 | A 0.846 | F 1.21 | K 0.565 | D 1.26
C278: Y 0.449 | H 1.06 | Q 0.612 | S 1.21 | P 1.22 | A 1.29 | L 1.08 | F 0.811 | W 0.795 | G 1.08 | E 1.66 | K 1.57 | I 0.402 | V 0.943 | M 1.37 | D 1.03 | R 1.51 | T 1.22 | N 1.12
K262: L 1.13 | T 1.08 | Y 1.29 | H 1.52 | G 1.35 | W 1.05 | P 1.56 | M 1.17 | I 0.763 | D 1.38 | R 1.18 | E 1.31 | V 1.29 | S 0.994 | A 1.23 | F 0.714 | N 1.33
P280: A 0.896 | M 1.04 | S 1.16 | I 1.36 | E 1.69 | N 1.63 | K 1.67 | Q 1.36 | L 1.32 | H 1.17 | D 1.45 | V 1.41 | R 1.14 | W 0.665 | G 1.46 | T 1.53 | F 1
P281: L 1.18 | M 1.31 | Y 1.38 | V 1.19 | R 0.969 | F 1.23 | C 0.746 | A 0.84 | I 1.46 | S 0.965 | W 0.551 | Q 1.51 | G 0.787 | K 1.26 | N 1.66 | T 1.46 | E 1.3 | D 1.45
G276: T 1.16 | C 1.2 | V 1.05 | E 1.57 | R 1.35 | L 1.11 | W 1.36 | A 1.41 | S 1.42 | I 0.493 | F 0.884 | P 1.22 | D 1.33
G279: W 1.06 | R 0.829 | N 1.57 | Q 1.32 | F 1.27 | H 1.6 | L 1.41 | C 0.657 | M 0.984 | I 1.41 | Y 1.43 | E 0.538 | P 1.17 | S 1.25 | T 1.57 | V 0.88 | A 0.991
G270: R 1.43 | V 1.26 | N 1.4 | L 0.945 | D 1.52 | Q 1.16 | A 0.849 | M 0.994 | T 1.09 | H 1.07 | F 1.14 | C 1.41 | E 1.42 | S 1.47 | I 0.821 | P 1.43
A273: C 0.584 | D 0.919 | N 1.3 | R 1.13 | M 0.796 | L 0.931 | I 1.46 | V 0.694 | P 1.4 | H 0.901 | G 0.649 | W 1.65 | S 0.646 | F 0.993 | K 0.589 | T 1.46
E265: T 1.56 | D 1.31 | L 1.18 | W 1.57 | G 0.962 | I 1.42 | M 1.25 | V 1.41 | A 1.3 | S 1.49 | R 1.41 | F 1.08 | C 1.67 | Q 0.752
N266: T 0.876 | H 1.29 | G 0.477 | L 0.675 | C 0.945 | M 0.331 | S 0.965 | V 0.844 | I 1.38 | P 1.09 | A 1.45 | R 1.3 | W 0.574 | K 0.318 | E 0.101 | D 1.13
L263: V 0.76 | G 0.983 | Q 0.281 | D 0.549 | R 1.39 | S 1.18 | A 0.39 | M 0.891 | W -0.0482 | F 0.857 | C 1.11 | I 1.57 | T 1.22 | E 1.04
K269: S 1.41 | H 1.49 | Y 1.33 | I 1.28 | C 1.09 | P 1.26 | A 0.886 | W 0.728 | Q 1.5 | V 1.22 | F 0.789 | R 1.22 | G 1.46 | N 1.23 | L 1.45 | T 1.47
F264: W 0.216 | Y 1.06 | A 1.16 | S 0.597 | E 1.57 | P 1.4 | T 0.96 | R 0.806 | G 1.01 | L 1.1 | V 0.678 | I 0.658
I274: L 1.02 | D 0.889 | Y 1.16 | W 0.0744 | C 0.973 | H 0.363 | F 1.13 | S 0.98 | V 0.7 | R 0.816 | A 0.907 | Q 1.62 | G 1.05 | M 0.974 | N 1.27
Y261: F 0.449 | I 1.62 | H 0.771 | P 1.15 | L 0.609 | G 0.901 | V 1.22 | A 1.25 | S 0.699 | W 0.609 | C 0.999 | T 1.04
S271: Y -0.251 | R 1.04 | P 0.317 | T 1.17 | V 0.986 | M 1.5 | G 0.976 | F 1.03 | W 0.443 | C 0.412 | A 1.11 | L 1.39 | Q 1.08 | D 1.64 | I 1.15
